# B1: dipeptidylpeptidase activity associated with HS (Homo sapiens) (protein)
# chain: SRKTYTLTDYLKNTYRLKLYSLRWISDHEYLYKQENNILVFNAEYGNSSVFLENSTFDEFGHSINDYSISPDGQFILLEYNYVKQWRHSYTASYDIYDLNKRQLITEERIPNNTQWVTWSPVGHKLAYVWNNDIYVKIEPNLPSYRITWTGKEDIIYNGITDWVYEEEVFSAYSALWWSPNGTFLAYAQFNDTEVPLIEYSFYSDESLQYPKTVRVPYPKAGAVNPTVKFFVVNTDSLSSVTNATSIQITAPASMLIGDHYLCDVTWATQERISLQWLRRIQNYSVMDICDYDESSGRWNCLVARQHIEMSTTGWVGRFRPSEPHFTLDGNSFYKIISNEEGYRHICYFQIDKKDCTFITKGTWEVIGIEALTSDYLYYISNEYKGMPGGRNLYKIQLSDYTKVTCLSCELNPERCQYYSVSFSKEAKYYQLRCSGPGLPLYTLHSSVNDKGLRVLEDNSALDKMLQNVQMPSKKLDFIILNETKFWYQMILPPHFDKSKKYPLLLDVYAGPCSQKADTVFRLNWATYLASTENIIVASFDGRGSGYQGDKIMHAINRRLGTFEVEDQIEAARQFSKMGFVDNKRIAIWGWSYGGYVTSMVLGSGSGVFKCGIAVAPVSRWEYYDSVYTERYMGLPTPEDNLDHYRNSTVMSRAENFKQVEYLLIHGTADDNVHFQQSAQISKALVDVGVDFQAMWYTDEDHGIASSTAHQHIYTHMSHFIKQCFSLP
# notes: from tissue; host or cells: human serum
# B2: dipeptidylpeptidase activity associated with FBS (Bos taurus) (protein)
# chain: SRRTYTLADYLKNTFRMKFYNLRWVSDHEYLYKQENNILLFNAEYGNSSIFLENSTFDEFGHSINDYSVSPDRQYILFEYNYVKQWRHSYTASYDIYDLNKRQLITEERIPNNTQWITWSSVGHKLAYVWNNDIYVKNEPNSPSQRITWTGKKDVIYNGITDWVYEEEVFSAYSALWWSPNSTFLAYAQFNDTEVPLIEYSFYSDESLQYPKTVKIPYPKAGAVNPTIKFFVVNISSLSPNINATSQQIVPPGSVLIGDHYLCDVTWVTEERISLQWLRRIQNYSIMDICDYDRSTGRWISSVGRQHIEISTTGWVGRFRPAEPHFTSDGNSFYKIISNEEGYKHICHFQTDKRNCTFITKGAWEVIGIEALTSDYLYYISNEYKGMPGARNLYKIQLNDYTKVTCLSCELNPDRCQYYSVSFSQEAKYYQLRCSGPGLPLYTLHNSNNDKELRVLENNSDLDQVLQDVQMPSKKLDFIHLHGTKFWYQMILPPHFDKSKKYPLLLEVYAGPCSQKADAIFRLNWATYLASTENIIVASFDGRGSGYQGDKIMHAINRRLGTFEVEDQIEATRQFSKMGFVDDKRIAIWGWSYGGYVTSMVLGAGSGVFKCGIAVAPVSKWEYYDSVYTERYMGLPTPEDNLDSYRNSTVMSRAENFKQVEYLLIHGTADDNVHFQQSAQISKALVDAGVDFQSMWYTDEDHGIASSTAHQHIYTHMSHFLKQCFSLL
# notes: from tissue; host or cells: fetal bovine serum
# B3: CD26/dipeptidylpeptidase IV (Homo sapiens) (protein)
# chain: MKTPWKVLLGLLGAAALVTIITVPVVLLNKGTDDATADSRKTYTLTDYLKNTYRLKLYSLRWISDHEYLYKQENNILVFNAEYGNSSVFLENSTFDEFGHSINDYSISPDGQFILLEYNYVKQWRHSYTASYDIYDLNKRQLITEERIPNNTQWVTWSPVGHKLAYVWNNDIYVKIEPNLPSYRITWTGKEDIIYNGITDWVYEEEVFSAYSALWWSPNGTFLAYAQFNDTEVPLIEYSFYSDESLQYPKTVRVPYPKAGAVNPTVKFFVVNTDSLSSVTNATSIQITAPASMLIGDHYLCDVTWATQERISLQWLRRIQNYSVMDICDYDESSGRWNCLVARQHIEMSTTGWVGRFRPSEPHFTLDGNSFYKIISNEEGYRHICYFQIDKKDCTFITKGTWEVIGIEALTSDYLYYISNEYKGMPGGRNLYKIQLSDYTKVTCLSCELNPERCQYYSVSFSKEAKYYQLRCSGPGLPLYTLHSSVNDKGLRVLEDNSALDKMLQNVQMPSKKLDFIILNETKFWYQMILPPHFDKSKKYPLLLDVYAGPCSQKADTVFRLNWATYLASTENIIVASFDGRGSGYQGDKIMHAINRRLGTFEVEDQIEAARQFSKMGFVDNKRIAIWGWSYGGYVTSMVLGSGSGVFKCGIAVAPVSRWEYYDSVYTERYMGLPTPEDNLDHYRNSTVMSRAENFKQVEYLLIHGTADDNVHFQQSAQISKALVDVGVDFQAMWYTDEDHGIASSTAHQHIYTHMSHFIKQCFSLP
# notes: made in house; by own knowledge a natural human source (seminal plasma), not recombinant
# Legend:
# Assay type in all cases: biochemical
# [1] = substrate: NCC(=O)N1CCC[C@H]1C(=O)NCC(N)=O; assay: Conversion of [14C]GPG-NH2 to G-NH2 by human serum; settings: other: derived from GPG-NH2 disappearance curves; pH 3.5
# Description: (§1) Next, the conversion of radiolabeled [^14C]GPG-NH2 to [^14C]G-NH2 by purified CD26, fetal bovine serum (FBS), human serum (HS) and CEM cell suspensions was analyzed. Radiolabeled [^14C]GPG-NH2 (radiospecificity: 58 mCi/mmol), in which the radiolabeled carbon is located in the main chain carbon of the glycine at the carboxylic acid end of the tripeptide, and [^14C]G-NH2 (radiospecificity: 56 mCi/mmol) in which carbon-2 was radiolabeled were synthesized by Amersham Pharmacia Biotech (Buckinghamshire, England). A variety of these [^14C]GPG-NH2 concentrations were exposed to purified CD26, FBS, HS and CEM cell suspensions and the conversion to G-NH2 was analyzed.
# (§2) In another set of experiments, after one hour of exposure, disappearance of intact [^14C]GPG-NH2 was determined by HPLC analysis, as described above, using a cation-exchange Partisphere SCX column and a sodium phosphate buffer gradient at pH 3.5. GPG-NH2 was well-separated from G-NH2 (retention times: 25-27 min and 15-17 min, respectively). […] The GPG-NH2 conversion by the CEM cell suspensions proceeded linearly up to 1.5 mM. Only at higher GPG-NH2 concentrations (e.g., 3 and 5.4 mM), did the conversion curve for the CEM cell suspensions start to level-off slightly.
# [2] = substrate: NCC(=O)N1CCC[C@H]1C(=O)NCC(N)=O; assay: Conversion of [14C]GPG-NH2 to G-NH2 by fetal bovine serum; settings: other: derived from GPG-NH2 disappearance curves; pH 3.5
# Description: as §1, §2
# [3] = substrate: NCC(=O)N1CCC[C@H]1C(=O)NCC(N)=O; assay: Conversion of GPG-NH2 to GP-OH and G-NH2 by purified CD26; settings: other: purified CD26; pH 3.5
# Description: In some experiments, approximately, 100 μM GPG-NH2 was exposed to 25 units/l of purified CD26 and the mixture was incubated for up to 400 minutes at room temperature. The lymphocyte surface glycoprotein CD26/dipeptidylpeptidase IV was purified as described before. (See De Meester, J. Immunol. Methods, 189:99-105 (1996), herein expressly incorporated by reference in its entirety). At different time points, an aliquot of the reaction mixture was withdrawn and analyzed on an electrospray ion trap mass spectrometer (Esquire, Bruker, Bremen, Germany). The appearance of the dipeptide GP-OH upon release from the amino terminal end of the GPG-NH2 molecule, as well as, the disappearance of intact GPG-NH2 from the reaction mixture was determined and monitored by electrospray ion trap mass spectometric analysis at different time points (See FIG. 3). Under these experimental conditions, CD26 released GP-OH in a time-dependent manner from GPG-NH2, and virtually completely converted GPG-NH2 to GP-OH and G-NH2 within 4 to 6 hrs of the reaction.
# Next, the conversion of radiolabeled [^14C]GPG-NH2 to [^14C]G-NH2 by purified CD26, fetal bovine serum (FBS), human serum (HS) and CEM cell suspensions was analyzed. […] A variety of these [^14C]GPG-NH2 concentrations were exposed to purified CD26, FBS, HS and CEM cell suspensions and the conversion to G-NH2 was analyzed. […]
protein,measurement,setting,value
B1,Km,[1],0.45 mM
B2,Km,[2],1.4 mM
B3,Km,[3],0.183 mM
